Each block holds one substance with its values, some of them ahead of it.
Tests used:
[1] = target: MUC16 (CA125), native, membrane-bound on cancer cells (human) (UniProt Q8WXI7); test: cell-based or functional assay
[2] = target: MUC16-targeted mesothelin-TR3 fusion protein (Meso-TR3) (human); test: cell-based or functional assay
[3] = target: MUC16 (CA125), native, membrane-bound on cancer cells (human) (UniProt Q8WXI7); test: flow cytometry on OVCAR3 cells, anti-FLAG detection

MUC16-targeted mesothelin-TR3 fusion protein (Meso-TR3), sequence (chain): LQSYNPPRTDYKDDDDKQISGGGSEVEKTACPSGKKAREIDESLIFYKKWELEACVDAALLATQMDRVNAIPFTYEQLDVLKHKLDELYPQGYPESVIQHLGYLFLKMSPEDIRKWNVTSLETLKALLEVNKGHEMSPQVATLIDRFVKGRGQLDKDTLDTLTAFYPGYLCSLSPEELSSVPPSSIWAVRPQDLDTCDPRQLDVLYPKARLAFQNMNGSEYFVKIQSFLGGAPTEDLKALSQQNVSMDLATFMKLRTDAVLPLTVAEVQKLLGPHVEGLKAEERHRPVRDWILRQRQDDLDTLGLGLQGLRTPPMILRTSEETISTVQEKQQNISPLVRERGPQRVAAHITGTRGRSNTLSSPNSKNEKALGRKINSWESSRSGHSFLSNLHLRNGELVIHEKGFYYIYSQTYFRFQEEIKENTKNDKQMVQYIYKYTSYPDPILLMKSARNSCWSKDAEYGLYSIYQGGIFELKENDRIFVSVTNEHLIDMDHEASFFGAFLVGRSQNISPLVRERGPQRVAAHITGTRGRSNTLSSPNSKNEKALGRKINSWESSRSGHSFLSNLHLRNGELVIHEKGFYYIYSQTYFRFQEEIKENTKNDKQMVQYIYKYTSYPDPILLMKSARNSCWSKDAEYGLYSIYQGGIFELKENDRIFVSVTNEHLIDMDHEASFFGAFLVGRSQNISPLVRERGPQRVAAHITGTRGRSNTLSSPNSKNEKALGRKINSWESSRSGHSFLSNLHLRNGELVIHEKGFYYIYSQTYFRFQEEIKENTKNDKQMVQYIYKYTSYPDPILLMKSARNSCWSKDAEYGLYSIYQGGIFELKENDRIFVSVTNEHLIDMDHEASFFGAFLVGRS
MUC16-targeted mesothelin-TR3 fusion protein (Meso-TR3) (human), sequence (chain, as listed by the source limits assumed, form in doubt): as the sequence (chain) above

- fraction of MUC16-positive HeLa cells after Meso-TR3 treatment (flow cytometry) [1]: 54%
- fraction of MUC16-positive HeLa cells before Meso-TR3 treatment (flow cytometry) [1]: 80%
Substance: MUC16-targeted mesothelin-TR3 fusion protein (Meso-TR3)
- cell death of MUC16-positive OVCAR3 cells at the highest drug dose [1]: 65%
- cell killing of OVCAR3 cells by Meso-TR3, highest dose of soluble mesothelin competitor [1]: 40%
- cell killing of OVCAR3 cells by Meso-TR3, no competitor [1]: 80%

Substance: soluble death receptor 5 (DR5-Fc) (from UniProt O14763 56-182) (Fc fusion)
- cell death of OVCAR3 cells by Meso-TR3 at the highest DR5-Fc concentration [2]: < 10%
- cell death of OVCAR3 cells by Meso-TR3 in the absence of DR5-Fc [2]: 90%

- percent of cells positive for the FLAG epitope tag [3]: 100%
Substance: soluble, FLAG-tagged human mesothelin (secreted form, GPI signal sequence deleted) (from UniProt Q13421 37-598) (ligand)
